The data set deals with the molecule itself. Nature of the data set: thioflavin T aggregation kinetics + electron microscopy; synthetic substrate peptide alone at a range of concentrations, seed-free or seeded with the final product of the 15 µM reaction; 40 mM Tris-HCl, 5 mM DTT, 0.002% SDS, 50 µM ThT, 40°C, intermittent shaking; fibrils seen by negative-stain transmission electron microscopy.

This is an account of results in article PMC10644982, “Targeting amyotrophic lateral sclerosis by neutralizing seeding-competent TDP-43 in CSF” (Brain Communications, 2023).

B1: TDP-43 peptide (352–414) (peptide)
peptide: NNQNQGNMQREPNQAFGSGNNSYSGSNSGAAIGWGSASNAGSGSGFNGGFGSSMDSKSSGWGM
notes: free N- and C-termini (H- ... -OH); also called assay substrate; SAA substrate
B1: the binding result was “binds”.
